B1: Pistol ribozyme (parent)
chain: GGGUCGUUGUUCCAUAAUCGCGUGGAUAUGGCACGCAAGUUUCUACCGGGCACCGUAAAUGUCCGACUGGAGCCGUUCGGGCGGCUAUAAACAGACCUCAGGCCCGAAGCGUGGCGGCACCUGCCGCCGGUGGUAAAAAAGAUCGGAAGAGCACACGUCU

Variants of: B1
Experiment: aptazyme ON/OFF ratio, guanine; higher = stronger switching; co-transcriptional cleavage with and without guanine

Variant | aptazyme ON/OFF ratio
GGGUCGGGAUCGCAUAAUCGCGUGGAUAUGGCACGCAAGUUUCUACCGGGCACCGUAAAUGUCCGACUGGAGCCGUUCGGGCGGCUAUAAACAGACCUCAGGCCCGAAGCGUGGCGGCACCUGCCGCCGGUGGUAAAAAAGAUCGGAAGAGCACACGUCU [U7G U8G G9A U11C C12G] | 1.33
GGGUCGGGAUCUCAUAAUCGCGUGGAUAUGGCACGCAAGUUUCUACCGGGCACCGUAAAUGUCCGACUGGAGCCGUUCGGGCGGCUAUAAACAGACCUCAGGCCCGAAGCGUGGCGGCACCUGCCGCCGGUGGUAAAAAAGAUCGGAAGAGCACACGUCU [U7G U8G G9A U11C C12U] | 1.65
GGGUCGGGAUCACAUAAUCGCGUGGAUAUGGCACGCAAGUUUCUACCGGGCACCGUAAAUGUCCGACUGGAGCCGUUCGGGCGGCUAUAAACAGACCUCAGGCCCGAAGCGUGGCGGCACCUGCCGCCGGUGGUAAAAAAGAUCGGAAGAGCACACGUCU [U7G U8G G9A U11C C12A] | 1.5
GGGUCGGGAGGGUAUAAUCGCGUGGAUAUGGCACGCAAGUUUCUACCGGGCACCGUAAAUGUCCGACUGGAGCCGUUCGGGCGGCUAUAAACAGACCUCAGGCCCGAAGCGUGGCGGCACCUGCCGCCGGUGGUAAAAAAGAUCGGAAGAGCACACGUCU [U7G U8G G9A U10G U11G C12G C13U] | 1.11
GGGUCGGGAGGGGAUAAUCGCGUGGAUAUGGCACGCAAGUUUCUACCGGGCACCGUAAAUGUCCGACUGGAGCCGUUCGGGCGGCUAUAAACAGACCUCAGGCCCGAAGCGUGGCGGCACCUGCCGCCGGUGGUAAAAAAGAUCGGAAGAGCACACGUCU [U7G U8G G9A U10G U11G C12G C13G] | 1.25
GGGUCGGGAUAGGAUAAUCGCGUGGAUAUGGCACGCAAGUUUCUACCGGGCACCGUAAAUGUCCGACUGGAGCCGUUCGGGCGGCUAUAAACAGACCUCAGGCCCGAAGCGUGGCGGCACCUGCCGCCGGUGGUAAAAAAGAUCGGAAGAGCACACGUCU [U7G U8G G9A U11A C12G C13G] | 1.06
GGGUCGGGAUAGUAUAAUCGCGUGGAUAUGGCACGCAAGUUUCUACCGGGCACCGUAAAUGUCCGACUGGAGCCGUUCGGGCGGCUAUAAACAGACCUCAGGCCCGAAGCGUGGCGGCACCUGCCGCCGGUGGUAAAAAAGAUCGGAAGAGCACACGUCU [U7G U8G G9A U11A C12G C13U] | 1.15
GGGUCGGGAUAGAAUAAUCGCGUGGAUAUGGCACGCAAGUUUCUACCGGGCACCGUAAAUGUCCGACUGGAGCCGUUCGGGCGGCUAUAAACAGACCUCAGGCCCGAAGCGUGGCGGCACCUGCCGCCGGUGGUAAAAAAGAUCGGAAGAGCACACGUCU [U7G U8G G9A U11A C12G C13A] | 1.03
GGGUCGGGAGGUCAUAAUCGCGUGGAUAUGGCACGCAAGUUUCUACCGGGCACCGUAAAUGUCCGACUGGAGCCGUUCGGGCGGCUAUAAACAGACCUCAGGCCCGAAGCGUGGCGGCACCUGCCGCCGGUGGUAAAAAAGAUCGGAAGAGCACACGUCU [U7G U8G G9A U10G U11G C12U] | 1.43
GGGUCGGGAUAAUAUAAUCGCGUGGAUAUGGCACGCAAGUUUCUACCGGGCACCGUAAAUGUCCGACUGGAGCCGUUCGGGCGGCUAUAAACAGACCUCAGGCCCGAAGCGUGGCGGCACCUGCCGCCGGUGGUAAAAAAGAUCGGAAGAGCACACGUCU [U7G U8G G9A U11A C12A C13U] | 1.38
GGGUCGGGAUAAGAUAAUCGCGUGGAUAUGGCACGCAAGUUUCUACCGGGCACCGUAAAUGUCCGACUGGAGCCGUUCGGGCGGCUAUAAACAGACCUCAGGCCCGAAGCGUGGCGGCACCUGCCGCCGGUGGUAAAAAAGAUCGGAAGAGCACACGUCU [U7G U8G G9A U11A C12A C13G] | 1.14
GGGUCGGGAUAAAAUAAUCGCGUGGAUAUGGCACGCAAGUUUCUACCGGGCACCGUAAAUGUCCGACUGGAGCCGUUCGGGCGGCUAUAAACAGACCUCAGGCCCGAAGCGUGGCGGCACCUGCCGCCGGUGGUAAAAAAGAUCGGAAGAGCACACGUCU [U7G U8G G9A U11A C12A C13A] | 1.23
GGGUCGGGAUAUCAUAAUCGCGUGGAUAUGGCACGCAAGUUUCUACCGGGCACCGUAAAUGUCCGACUGGAGCCGUUCGGGCGGCUAUAAACAGACCUCAGGCCCGAAGCGUGGCGGCACCUGCCGCCGGUGGUAAAAAAGAUCGGAAGAGCACACGUCU [U7G U8G G9A U11A C12U] | 1.44
GGGUCGGGAUAGCAUAAUCGCGUGGAUAUGGCACGCAAGUUUCUACCGGGCACCGUAAAUGUCCGACUGGAGCCGUUCGGGCGGCUAUAAACAGACCUCAGGCCCGAAGCGUGGCGGCACCUGCCGCCGGUGGUAAAAAAGAUCGGAAGAGCACACGUCU [U7G U8G G9A U11A C12G] | 1.12
GGGUCGGGAUAACAUAAUCGCGUGGAUAUGGCACGCAAGUUUCUACCGGGCACCGUAAAUGUCCGACUGGAGCCGUUCGGGCGGCUAUAAACAGACCUCAGGCCCGAAGCGUGGCGGCACCUGCCGCCGGUGGUAAAAAAGAUCGGAAGAGCACACGUCU [U7G U8G G9A U11A C12A] | 1.38
GGGUCGGGAGGCGAUAAUCGCGUGGAUAUGGCACGCAAGUUUCUACCGGGCACCGUAAAUGUCCGACUGGAGCCGUUCGGGCGGCUAUAAACAGACCUCAGGCCCGAAGCGUGGCGGCACCUGCCGCCGGUGGUAAAAAAGAUCGGAAGAGCACACGUCU [U7G U8G G9A U10G U11G C13G] | 1.41
GGGUCGGGAGGCUAUAAUCGCGUGGAUAUGGCACGCAAGUUUCUACCGGGCACCGUAAAUGUCCGACUGGAGCCGUUCGGGCGGCUAUAAACAGACCUCAGGCCCGAAGCGUGGCGGCACCUGCCGCCGGUGGUAAAAAAGAUCGGAAGAGCACACGUCU [U7G U8G G9A U10G U11G C13U] | 1.22
GGGUCGGGAGGCAAUAAUCGCGUGGAUAUGGCACGCAAGUUUCUACCGGGCACCGUAAAUGUCCGACUGGAGCCGUUCGGGCGGCUAUAAACAGACCUCAGGCCCGAAGCGUGGCGGCACCUGCCGCCGGUGGUAAAAAAGAUCGGAAGAGCACACGUCU [U7G U8G G9A U10G U11G C13A] | 1.13

Reference: the RNAGym collection of RNA variant scans (doi:10.1021/acssynbio.7b00057)
